First the molecules themselves.
B1: 49-01.F01 (antibody, V domains shown)
VH: EVQLVESGGGVVKPGESLRLLCTASGLSFNKYSINWVRQAPGGGLEWVSSIESGSGHIYYADSLEGRFTISRDNAKNSVTLEMNSLRVEDTALYYCVSGPEDKWLLQLYFESWGQGTLVTVSS
VL: EIVLTQSPATLSLSPGERATLSCRTSQSSPSDNLAWYQHKPGQAPRLLIYGGSNRATGIPARFSGSGSGTDFTLTISSLEPEDFAVYYCQQYGSSPLTFGGGTKVDIKR
B2: 49-01.F05 (antibody, V domains shown)
VH: QVQLQQWGAGLLKPSETLSLTCAVYGGSFSGYYWSWIRQPPGKGLEWIGEINHSGSTNYNPSLKSRVTISVDTSKNQFSLKLSSVTAADTAVYYCARGWRGGSFMDVWGQGTTVTVSS
VL: QSALTQPRSVSGSPGQSVTISCTGTSSDVGGYNYVSWYQQHPGKAPKLMIYDVIKRPSGVPDRFSGSRSGNTASLTISGLQAEDEADYYCCSYAGTHWVFGGGTKLTVLG
B3: 49-01.D06 (antibody, V domains shown)
VH: QVQLVQSGAEVKKPGTSVKVSCKASGYTFTTYTMHWVRQAPGQRLEWMGWINTGNGNTKYSQKFQDRVTITRDTSASTAYMELSSLKFEDTAVYYCAREGVTIFGDHSYYYGMDVWGQGTTVTVSS
VL: QPVLTQSSSASASLGSSVKLTCTLSSGHSSYIIAWHQQQPGKAPRYLMKLEGSGSYNKGSGLPDRFSGSSSGADRYLTISNLQSEDEADYYCETWDGNTWVFGGGTQLTVLG
B4: 50-01.E02 (antibody, V domains shown)
VH: QVQLVESGGGVVQPGGSLKLSCVASGFTFSAYAMNWVRLVPGKGLEWVSGISGNGYSTFYPDSVQGRFTVSRDNSKNTLFLQIDRLTGGDTAIYYCAKVQTTVITPFQNWGQGTLVTVSS
VL: EIVLTQSPGTLSLSPGERATLSCRASQNIGSNFLAWYQQKPGQAPRLLIYGASTRANGIPDRFSGSKSETDFTLTISRLEPEDFAVYYCQQYDNSPYTFGQGTKLEIKR
B5: 50-01.D01 (antibody, V domains shown)
VH: QVQLVESGGGVVQPGRSRRLSCAASGFAFRNYGMHWVRQAPGKGLEWVAFISQNGGKKYYADSVTGRFTVSRDNSKNTLYLQINSLTTDDTAVFYCARSGSGSWGYSDFPGPFDHWGQGSLVTVSS
VL: EIVLTQSPGTLSLSPGERATLSCRASQNIFISFLAWYQQKPGQAPRLLLYGASNRATGIPDRFSGSGSGTDFTLTISRLEPEDFAVYYCQQYGSSPLTFGGGTKVEIKR
notes: also called 50-01.001
B6: 50-01.A04 (antibody, V domains shown)
VH: QVQLVQSGAEVKKPGESLKISCKGSGYDFNNYWIGWVRQTPEKGLEWMGIVYPGDHPGDYHIRYGPSFQGQVTISADRSITTAYLQWRNLKASDTAMYYCARLGSSKDLDYWGQGTLVTVSS
VL: EIVLTQSPATLSLSPGERATLSCRASQSVSGHLDWYQQKPGQSPRLLIYDASNRATGIPARFSGSGSGTDFSLTISSLEPEDFAVYYCQHRSNWPWTFGQGTKVEIKR
B7: 47-01.D05 (antibody, V domains shown)
VH: QITLKESGPTLVKPTQTLTLTCTFSGFSLSTSGVGVGWIRQPPGKALEWLALIYWDDDKRYSPSLKSRLTITKDTSKNQVVLTMTNMDPVDTATYYCAHSGSVGYALYFDYWGQGTLVTVSS
VL: QAVLTQPPSSSASPGESARLTCTLPSDINVRYYNIYWYQQKPGSPPRYLLYYQSDSHKGRGSGVPSRFSGSKDTSANTGILLISGLQSEDEADYYCMIWASNGSGVLGGGTQLTVLG
B8: 50-01.F03 (antibody, V domains shown)
VH: EVQLVEIGGGLIQPGRSLRLSCAASGFTFSSYAMHWVRQAPGKGLEWVAVISYDGSKKYYADSVKGRFTISRDNSKNTVHLQMNSLRVEDTAVYYCALLSRPHYGLDVWGQGTTVTVSS
VL: QSVLTQPPSVSAAPGQKVTISCSGSRSNVGGNFLSWYQHVPGTPPQLLIYDNYKRPSEIPDRFSGSKSGTSATLDITGLQTGDEADYYCGTWDSSLSSWVFGGGTQLTVLG
B9: 49-02.C11 (antibody, V domains shown)
VH: EVQLVESGGGLVQPGGSLRLSCAASGFTFSSYAMTWVRQAPGKGLEWVSVISGGGGTTYYADSVKGRFTISRDNSKNTLYLQMSSLRAEDTAVYYCAKGYSSGWPYYFDYWGQGTLVTVSS
VL: EIVLTQSPGTLSLSPGERATLSCRASQSGVTNFLAWYQQKPGQAPRLLIYATSSRATGIPDRFSGSASGTDFTLTITRLEPEDFAVYFCQQYASSPLTFGGGTKVEIKR
notes: also called 49-02.011
B10: 52-01.A07 (antibody, V domains shown)
VH: EVQLVESGGGLVQPGRSLRLSCAASGFTFSSYAMHWVRQAPGKGLEWVAVISYDGSNKYYADSVKGRFTISRDNSKNTLYLQMNSLRAEDTAVYYCASKRELHSFDYWGQGTLVTVSS
VL: DVVMTQSPLSLPVTPGEPASISCRSSQSLLQSNGHNYLNWYLQKPGQSPQVLIYLASNRASGVPDRFSGSGSGTDFTLKISRVEAEDVGIYYCMQGLQIPLTFGGGTKVEIKR

Where only a bound is given, the exact number is not on record here.

The source of these data is patent US20160272707A1 (COMPUGEN, published 2016).

The first experiment deals with T1, human VSTM5-EGFP (SEQ ID NO:133) expressed on HEK-293 cells (human).
T1 construct: Full-length human VSTM5 fused at its C-terminus to EGFP; also called VSTM5_GFP
The experiment in a line: FACS, IgG1 at 22 nM on 293-huVSTM5 (VSTM5-EGFP) cells; grade from ratio to 293-MT control cells (>2000).
On to B1, for which the “ratio of 293-huVSTM5 cell binding / 293-MT control cell binding (FACS) at 22 nM mAb” value was over 2000 ratio.

As to B2, the “ratio of 293-huVSTM5 cell binding / 293-MT control cell binding (FACS) at 22 nM mAb” value is over 2000 ratio.

With B3, the “ratio of 293-huVSTM5 cell binding / 293-MT control cell binding (FACS) at 22 nM mAb” value is over 2000 ratio.

The target of a further experiment is T1, human VSTM5-EGFP (SEQ ID NO:133) …. In words: FACS titration of the human IgG1 on 293-huVSTM5 cells, 293-MT control cells as open squares; y axis MFI (anti-Human A647).
Consider B1, for which the EC50 (read off the curve) (as a rule, the concentration that produces a half-maximal response) is about 1 nM.

Take B4: the “EC50 (read off the curve)” value is about 1 nM.

Turning to B5, the “EC50 (read off the curve)” value was about 0.6 nM.

Another experiment concerns the target T2, VSTM5 monomer (UniProt A8MXK1 29-147, limits assumed).
T2 construct: also called monomeric VSTM5 antigen; VSTM5 antigen
T2 sequence (looked up): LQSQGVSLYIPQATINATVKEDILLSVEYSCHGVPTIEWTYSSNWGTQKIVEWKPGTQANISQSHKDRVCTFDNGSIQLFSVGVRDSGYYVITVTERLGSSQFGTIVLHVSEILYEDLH
The experiment in a line: SPR, VSTM5 monomer binding to the IgG (equilibrium binding constant). (Surface plasmon resonance follows binding to a sensor surface in real time, without labels.)
Consider B1, for which the Kd (commonly the constant that tells how readily two partners part at equilibrium) came to 2 nM.

The molecule B2 showed a Kd of 190 nM.

In turn, B6 showed a Kd of 52.8 nM.

As for B7, the Kd stood at 60.7 nM.

In another experiment the target is T1, human VSTM5-EGFP (SEQ ID NO:133) …. In words: FACS, IgG1 at 22 nM on 293-huVSTM5 (VSTM5-EGFP) cells; grade from ratio to 293-MT control cells (400-850). As for the experimental part: Empty vector control cells and human VSTM5 EGFP suspension 293 cells were pelleted and stained in 50 μl of the indicated concentrations of anti-VSTM5 antibodies or isotype controls in FACS buffer at 4° C. for 60 mins. Cells were washed once in FACS buffer, re-suspended in 50 μl of 1:250 dilution of biotinylated anti-human IgG (Jackson cat#109-065-097) for 30 mins at 4° C. Cells were washed in FACS buffer, re-suspended in 50 μl of 1:100 dilution of SA-PE (Jackson cat#016-110-084) for 30 mins. Cells were washed twice and re-suspended in a final volume of 100 μl of FACS buffer. Samples were read on the Intellicyt HTFC. Data was analyzed by FCS Express (DeNovo, Calif., USA), exported to Excel (Microsoft, WA, USA) and plotted in GraphPad Prism® (GraphPad Software, Inc., CA, USA).
Turning to B8, the “ratio of 293-huVSTM5 cell binding / 293-MT control cell binding (FACS) at 22 nM mAb” value was 400 to 850 ratio.

For B7, the “ratio of 293-huVSTM5 cell binding / 293-MT control cell binding (FACS) at 22 nM mAb” value fell in the range of 400 to 850 ratio.

Regarding B5, the “ratio of 293-huVSTM5 cell binding / 293-MT control cell binding (FACS) at 22 nM mAb” value was in the range of 400 to 850 ratio.

The next experiment concerns the target T3, mouse VSTM5 (SEQ ID NO:11) expressed on HEK-293T cells (mouse, UniProt Q9D806 28-199).
T3 construct: also called mouse VSTM5 untagged
T3 sequence: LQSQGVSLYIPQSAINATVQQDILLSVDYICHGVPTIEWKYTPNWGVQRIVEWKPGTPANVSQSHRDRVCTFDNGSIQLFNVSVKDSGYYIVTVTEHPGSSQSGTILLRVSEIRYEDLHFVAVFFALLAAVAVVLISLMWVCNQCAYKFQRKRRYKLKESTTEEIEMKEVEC
In words: FACS titration on 293-muVSTM5 cells, panel 'Ab binding vs. mouse VSTM5'.
Take B1: the binding result is on record as “no binding”.

For B2, the binding result is recorded as “no binding”.

Consider B3, for which the binding result is given as “no binding”.

For B9, the binding result is “no binding”.

As for B8, the binding result is listed as “no binding”.

With B6, the binding result is “no binding”.

As to B4, the binding result was “no binding”.

For B10, the binding result is listed as “no binding”.

Consider B7, for which the binding result is given as “no binding”.

In the case of B5, the binding result was “no binding”.

A further experiment addresses T1, human VSTM5-EGFP (SEQ ID NO:133) …. The experiment in a line: FACS, IgG1 at 22 nM on 293-huVSTM5 (VSTM5-EGFP) cells; grade from ratio to 293-MT control cells (850-2000).
Turning to B9, the “ratio of 293-huVSTM5 cell binding / 293-MT control cell binding (FACS) at 22 nM mAb” value was in the range of 850 to 2000 ratio.

On to B4, for which the “ratio of 293-huVSTM5 cell binding / 293-MT control cell binding (FACS) at 22 nM mAb” value lay in the range of 850 to 2000 ratio.

A further experiment shares this target. The experiment in a line: FACS, IgG1 at 22 nM on 293-huVSTM5 (VSTM5-EGFP) cells; grade from ratio to 293-MT control cells (<50). Background: In flow cytometry, cells or beads pass a laser one at a time.
Turning to B10, the “ratio of 293-huVSTM5 cell binding / 293-MT control cell binding (FACS) at 22 nM mAb” value is under 50 ratio.

Another experiment has the same target. In words: FACS, IgG1 at 22 nM on 293-huVSTM5 (VSTM5-EGFP) cells; grade from ratio to 293-MT control cells (50-400).
Regarding B6, the “ratio of 293-huVSTM5 cell binding / 293-MT control cell binding (FACS) at 22 nM mAb” value is 50 to 400 ratio.

A further experiment shares this target. The experiment in a line: FACS titration of the human IgG1 on 293-huVSTM5 cells, 293-MT control cells as open squares; y axis MFI (anti-Human A647). The source holds these as a separate data set.
As for B8, the “EC50 (read off the curve)” value was about 0.7 nM.

For B7, the 50% effective concentration (EC50 (read off the curve)) is about 2 nM.

Another experiment concerns the target T2, VSTM5 monomer. The experiment in a line: SPR, VSTM5 monomer binding to the IgG.
Molecule B1 returned a Kd of 2 nM.

As for B2, the Kd worked out at 190 nM.

B6 gave a Kd of 52.8 nM.

For B7, the Kd worked out at 60.7 nM.
